T1: Human CEACAM5 I112V (human, UniProt P06731 35-685, limits assumed)
T1 sequence: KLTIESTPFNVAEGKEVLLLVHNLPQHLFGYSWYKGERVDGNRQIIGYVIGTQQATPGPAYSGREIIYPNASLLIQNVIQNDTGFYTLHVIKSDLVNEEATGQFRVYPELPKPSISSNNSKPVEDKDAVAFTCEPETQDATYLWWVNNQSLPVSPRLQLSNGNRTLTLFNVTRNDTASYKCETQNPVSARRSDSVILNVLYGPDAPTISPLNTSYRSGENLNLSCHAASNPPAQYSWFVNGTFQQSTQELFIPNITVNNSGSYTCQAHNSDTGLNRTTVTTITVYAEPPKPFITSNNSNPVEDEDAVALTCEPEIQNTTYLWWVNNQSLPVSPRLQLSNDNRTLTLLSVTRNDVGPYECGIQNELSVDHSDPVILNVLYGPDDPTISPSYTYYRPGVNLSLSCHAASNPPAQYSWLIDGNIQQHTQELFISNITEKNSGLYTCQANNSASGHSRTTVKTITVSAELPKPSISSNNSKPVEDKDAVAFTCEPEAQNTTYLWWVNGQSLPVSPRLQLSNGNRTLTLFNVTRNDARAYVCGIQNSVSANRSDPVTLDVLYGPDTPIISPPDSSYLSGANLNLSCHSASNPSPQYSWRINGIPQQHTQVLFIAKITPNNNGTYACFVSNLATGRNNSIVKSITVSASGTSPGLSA

T2: Human CEACAM5 I80V V83A I112V I113T (human, UniProt P06731 35-685, limits assumed)
T2 chain: T1 sequence with I46V, V49A, I79T

T3: Human CEACAM5 I113T (human, UniProt P06731 35-685, limits assumed)
T3 sequence: T1 sequence with V78I, I79T

T4: Human CEACAM5 (E398) (human, UniProt P06731 35-685, limits assumed)
T4 construct: also called hCEACAM5
T4 sequence: T1 sequence with V78I

B1: AB0466 F3' CEACAM5 TriNKET (bispecific antibody, human IgG1, kappa)
chain: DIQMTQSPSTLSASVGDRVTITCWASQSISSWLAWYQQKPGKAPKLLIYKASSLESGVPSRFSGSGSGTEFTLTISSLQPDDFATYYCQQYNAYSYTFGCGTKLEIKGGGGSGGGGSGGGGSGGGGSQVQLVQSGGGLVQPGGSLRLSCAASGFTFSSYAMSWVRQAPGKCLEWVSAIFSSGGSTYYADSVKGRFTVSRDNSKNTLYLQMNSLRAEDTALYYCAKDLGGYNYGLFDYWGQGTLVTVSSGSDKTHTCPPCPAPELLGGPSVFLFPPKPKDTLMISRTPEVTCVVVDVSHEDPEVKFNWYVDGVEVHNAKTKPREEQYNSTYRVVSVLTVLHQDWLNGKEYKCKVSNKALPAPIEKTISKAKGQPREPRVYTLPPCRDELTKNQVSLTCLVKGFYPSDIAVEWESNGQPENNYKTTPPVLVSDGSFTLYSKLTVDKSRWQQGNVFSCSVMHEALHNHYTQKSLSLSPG
heavy: EVQLVESGGGLVKPGGSLRLSCAASGFTFSSYSMNWVRQAPGKGLEWVSSISSSSSYIYYADSVKGRFTISRDNAKNSLYLQMNSLRAEDTAVYYCARGAPIGAAAGWFDPWGQGTLVTVSSASTKGPSVFPLAPSSKSTSGGTAALGCLVKDYFPEPVTVSWNSGALTSGVHTFPAVLQSSGLYSLSSVVTVPSSSLGTQTYICNVNHKPSNTKVDKKVEPKSCDKTHTCPPCPAPELLGGPSVFLFPPKPKDTLMISRTPEVTCVVVDVSHEDPEVKFNWYVDGVEVHNAKTKPREEQYNSTYRVVSVLTVLHQDWLNGKEYKCKVSNKALPAPIEKTISKAKGQPREPQVCTLPPSRDELTENQVSLTCLVKGFYPSDIAVEWESNGQPENNYKTTPPVLDSDGSFFLYSWLTVDKSRWQQGNVFSCSVMHEALHNHYTQKSLSLSPG
light: DIQMTQSPSSVSASVGDRVTITCRASQGISSWLAWYQQKPGKAPKLLIYAASSLQSGVPSRFSGSGSGTDFTLTISSLQPEDFATYYCQQGVSFPRTFGGGTKVEIKRTVAAPSVFIFPPSDEQLKSGTASVVCLLNNFYPREAKVQWKVDNALQSGNSQESVTEQDSKDSTYSLSSTLTLSKADYEKHKVYACEVTHQGLSSPVTKSFNRGEC
B2: AB0411 F3' CEACAM5 TriNKET (bispecific antibody, human IgG1, kappa)
chain: DIQLTQSPATLSVSPGERATLSCRASQSVSSSYLAWYQQKPGQAPRLLIYGASSRATGIPDRFSGSGSGTDFTLTISRLEPEDFAVYYCQQYNNWPLTFGCGTKVEIKGGGGSGGGGSGGGGSGGGGSQVQLVQSGGGLVQPGGSLRLSCAASGFTFTSYAMSWVRQAPGKCLEWVSAISGTGDSTFYADSVKGRFTFSRDNSKNTLYLQMNSLRAEDTAVYYCAKDLGWLQYGLFDYWGQGTLVTVSSGSDKTHTCPPCPAPELLGGPSVFLFPPKPKDTLMISRTPEVTCVVVDVSHEDPEVKFNWYVDGVEVHNAKTKPREEQYNSTYRVVSVLTVLHQDWLNGKEYKCKVSNKALPAPIEKTISKAKGQPREPRVYTLPPCRDELTKNQVSLTCLVKGFYPSDIAVEWESNGQPENNYKTTPPVLVSDGSFTLYSKLTVDKSRWQQGNVFSCSVMHEALHNHYTQKSLSLSPG
heavy: B1 heavy
light: B1 light
B3: AB0621 F3' CEACAM5 TriNKET (bispecific antibody, human IgG1, kappa)
chain: DIVMTQSPDSLAVSLGERATINCKSSHSLLYGNFQNNYLAWYQQKPGQPPKLLIYWASTRESGVPDRFSGSGSGTDFTLTISSLQAEDVAVYYCQQYYSYPYTFGCGTKLEIKGGGGSGGGGSGGGGSGGGGSQVQLVQSGAEVKKPGASVKVSCKASGYTFTAYTIHWVRQAPGQCLEWMGYINPSSGYTEYNQKFKDRTTLTADTSISTAYMELSRLRSDDTAVYYCTREGGLLWFDYWGQGTLVTVSSGSDKTHTCPPCPAPELLGGPSVFLFPPKPKDTLMISRTPEVTCVVVDVSHEDPEVKFNWYVDGVEVHNAKTKPREEQYNSTYRVVSVLTVLHQDWLNGKEYKCKVSNKALPAPIEKTISKAKGQPREPRVYTLPPCRDELTKNQVSLTCLVKGFYPSDIAVEWESNGQPENNYKTTPPVLVSDGSFTLYSKLTVDKSRWQQGNVFSCSVMHEALHNHYTQKSLSLSPG
heavy: B1 heavy
light: B1 light

Residue numbers refer to the chain shown, from its start.

The first assay concerns the target T1, Human CEACAM5 I112V. Nature of the assay: SPR, 37C, pH 7.4; reference E398. Background: Surface plasmon resonance follows binding to a sensor surface in real time, without labels.
For the molecule B1, the “KD/KD(Ref)” value is 1.6 fold.

Regarding B2, the “KD/KD(Ref)” value worked out at 1.2 fold.

As to B3, the “KD/KD(Ref)” value came out at 2.3 fold.

For another assay, the target named is T2, Human CEACAM5 I80V V83A I112V I113T. Nature of the assay: SPR, 37C, pH 7.4; reference E398.
As to B1, the “KD/KD(Ref)” value was found to be 8.5 fold.

With B2, the “KD/KD(Ref)” value was 3.9 fold.

As to B3, the “KD/KD(Ref)” value worked out at 1.3 fold.

For another assay, the target named is T3, Human CEACAM5 I113T. Put plainly: SPR, 37C, pH 7.4; reference E398.
As for B1, the “KD/KD(Ref)” value was found to be 1.2 fold.

With B2, the “KD/KD(Ref)” value came out at 1.1 fold.

For B3, the “KD/KD(Ref)” value is 1.7 fold.

A further assay has as its target T4, Human CEACAM5 (E398). Nature of the assay: SPR, 37C, pH 7.4; reference E398.
In the case of B1, the “KD/KD(Ref)” value is 1 fold.

Turning to B2, the “KD/KD(Ref)” value was found to be 1 fold.

As to B3, the “KD/KD(Ref)” value is 1 fold.

These data come from US20240124607A1 (Merck Sharp & Dohme, published 2024).
